What is called IC50 is the concentration at which inhibition is half-maximal. In general, Ki refers to the equilibrium dissociation constant of an inhibitor or competing ligand from its target.

The source of these data is patent US20030170222A1.

The test concerns the target Melanocortin MC5 (human recombinant, HEK-293 cells) (human), P33032.

Sequence of Melanocortin MC5 (human recombinant, HEK-293 cells) (human), P33032 (P33032 whole entry): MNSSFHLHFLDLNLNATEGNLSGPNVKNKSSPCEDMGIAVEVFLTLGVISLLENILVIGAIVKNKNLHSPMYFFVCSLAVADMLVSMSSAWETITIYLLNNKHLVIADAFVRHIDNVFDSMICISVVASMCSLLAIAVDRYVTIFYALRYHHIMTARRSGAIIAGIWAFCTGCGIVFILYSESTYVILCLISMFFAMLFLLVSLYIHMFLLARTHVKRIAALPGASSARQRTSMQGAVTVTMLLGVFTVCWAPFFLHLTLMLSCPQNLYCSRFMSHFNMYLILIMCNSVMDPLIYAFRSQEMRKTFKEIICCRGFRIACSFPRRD

As to SLWCVCPFRVCPPCH (modifications not checked) [β-Ge14.1-D1], the % Inh. was 71%, the IC50 was 294 nM and the Ki stood at 276 nM.
